Source: the nanobody polyreactivity screen of Harvey et al. (2022)

Assay: yeast display, Sf9 membrane polyspecificity reagent, FACS + sequencing; frameworks hold sequencing errors
How it was run: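 Sorting gates, low and high (top ~1%), were placed on anti-HA fluorescence to track expression and on streptavidin fluorescence to track reagent binding. A clone's polyreactivity label is taken from the gate it came out of. The reagent was 10% biotinylated, detergent-solubilized Sf9 membrane, applied for 1 hour at 4 °C to galactose-induced yeast display cells.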

Sequence | polyreactivity (PSR sort gate)
QVQLLESGGGLVQAGGSLRLSCAASGGTFRVYAMGWYRQAPVKEWELVAAISSGGSTNYADSVKGRFTISRDNAKNTVYLQMNSLIPEDTAVSYCNAKYRYRFARSPIYFYWGQGTQVTVSS | low polyreactivity
QVQLVESGGGLVQAGGSLRLSCAASGRTIPTYDMGWYRQAPGKERELVASIRSGGRTKYADSVKGRFTISRVNAKNTVYLQMNSLKPEDTAVYYCAADRRAYYYSFDYWGQGTQVTVSS | low polyreactivity
QVQLVESGGGLVQAGGSLRLSCAASGSTIWFYVMGWYRQAPGKERELVATIRWSTSSTYADSVKGRFTISRDNAMNTVYLQMNILKPEDTAVYYCNAQYSQVNGYDYWGQGTQVTVSS | low polyreactivity
QVQLVESGGGLVQAGGSLRLSCAASGITFWLYAMGWYRQAPGKERELVAAITSGGSTTYADSVKGRFTISRDNAKNTVFLQMYSLKPEDSAVYYCNAEYQDWFGRLDYWGQGTQVTVSS | high polyreactivity
QVQLVESGGGLVQAGGRLRLSCAASGSTFARNAMGWYRQAPGKERELVPAISRGGSTYYADSVKGRFTISRDNAKNTVYLEMNSLKPEDTAVYYCAVYNFHYGYVWYPYDYWGQGTEVTVSS | high polyreactivity
QVQLVESGGGLVQAGGSLSLSCAASGFTLRFYTMGWYRQAPGKERELVADITWSGASTYYADSVKGRFTISRDNAKNTVYLQMKSLKPEDTAVYYCNAEDRYWSYSVGAPYNYWGQGTQVTVSS | low polyreactivity
QVQLVESGGGLVQAGGSLRLSCAASGIIFKNYAMGWYRQAPGKERELVAAISWRGGRTYYADSVKGRFTISRDNAKNTVYLQMNSLKPEDTAVYYCAKELYVSYRGGPWVDYWGQGTQVTVSS | high polyreactivity
QVQLVESGGGLVQAGGSLRLSCAASGRTFYYNGMGWYRQAPGKERELVAAITSGGTTSYADSVKGRFTISRDNAKNTVYLLMNCLKPEDTAVYYCNAECAPWGSAYGHDQYDYWGQGTQVTVSS | low polyreactivity
QVQLVESGGGLVQAGVSLRLSCDASGSIFDPYAMGWFRQAPGKEMELVAAITASGSSTYYADSVKGRFTISRDNAKNTVYLQMNSLKPEDTAVYYCAADRANWEYLLSWLGYDYWGQGTQVTVSS | low polyreactivity
QVQLVESGGGLVQAGGSLRLSCAASGRTFAVNAMGWYRQAPGKEREFVARISTRGGGTYYADSVKGRFTISRDNAKNTVYLQMNSLKPEDTAVYYCNAGRTRNYYYYPMDYWGQGTQVTVSS | high polyreactivity
QVQLVESGGGLVQAGGSLRLSCAASGRIIPAYDMGWYRQAPGKERELVAAISQGAGGSTYYADSVKGRFTISRDNAKNTVYLQMISLKPEDTAVYSCAREGESGVVDTYGHVYVYEYDYWGQGTQVTVSS | low polyreactivity
QVQLVESGGGLVQAGGSLRLSCAASGITLGRYAMGWYRQAPGKERALVAAIPRSGGSTYYADSVKGRFTISRDNAKNTVYLQMNSLKPEDTAVYYCNRRVYPTSDYDYWGQGTQVTVSS | high polyreactivity
QVQLVESGGGLVQAGGSLRLSCAASGRTLNYNVLGWYRQAPGKERELVASITSRGGSTRYADSVKGRFTISRDHAKNTVYLQMNSLKPEDTAGYYCAARYTTARSSYDYWGQGTQVTVSS | high polyreactivity
QVQLVESGGGLVQAGGSLRLSCAASGSIFTHNAMGWYRPAPGKERELVAAISSGGSTYYADSVKGRFTISRDNAKNTVYLQMNSLKPEDTAVYYCAVRQGWYHFRYDYWGQGTQVTVSS | high polyreactivity
QVQLEESGGGLVQAGGSLRLSCAASGRIFKGYAMGWYRQATGKETEVVAAISSRGGNTYYADSVKGRFTISRDNAKNTVYLQMNSLKPVDTAVYYCAAVYKWSRYGGYNYWGQGTQVTVSS | low polyreactivity
QVQLVESGGGLVQAGGSLRLSCAASGITFLYYAMGWYRQAPGKERELVAAITRGGRTNYADSVKGRFTISRDNAKNTVYLQMNSLKPEDTAVYYCAARRSRPTYYSTGVNYWGQGTQVTVSS | high polyreactivity

Sequence | polyreactivity (PSR sort gate)
QVQLVESGGGLVQAGGSLLLSCAASGSIFDAYAMGWYRQSRGKERELVAAITSGGSTYYADSVKGRFTISRDNAKNNVYLQMNSLKPEDTAVYYCAAQYYDYKTTYDYWGQGTQVTVSS | high polyreactivity
QVQLVESGGGLVQAGGSLRLSCAASGRTFASYAMGWYRQAPGKERELVATIRSGDSTNYADSVKGRFTISRDNAKHTVYLQMNSLKPEDTAVYYCAADRDIFQQGANGAPYDYRGQGTQVTVSS | low polyreactivity
QVQLVESGGGLVQAGGSLRLSCAACGRTLVRYAMGWYRQAPGKERELVATITRGGSTNYADSVKGRFTISRDNAKNTVYLQMNSLKPEDTAVYYCARDLYYSSRYSPYGRYDYWGQGTQVTVSS | high polyreactivity
QVLLVESGGGLVHAGGSLRLSCAASGSISKINAMRRYRQAPGKERELVAAINTGDSTYYADSVKGRFTISRDNAKYTGYLQMNSLKPEDTAVYYCAAEGSPSGYDYWGQGTQVNVSS | low polyreactivity
QVQLVESVGGLVHAGGSLRLSCAASGSIFTKNAMGWYRHAPGKERELVAAITGSGGSTYYADSVKGRFTISRDNAKNTVYLQMNSLKPEDTALYYCAANFVFWSGAVYTRYDYWGQGTQVTVSS | high polyreactivity
QGQLVESGGGLVQAGGSLRLSCAASGSIFGINAMGWYRQAPGKERELVAAISGSTSRTYYADSVKGRFTISRDNAKKTVYLQMNSLKPEDTAVYYCAVVGLRSVTRRSDYWGQGTQVTVSS | high polyreactivity
QVQLVESGGGLVQAGGSLRLSCAASGSTFRYYAMGWYRQARGKERELVAAITSSGGRTYYADSVKGRFTISRDNAKNTVYLQMNSLKPEDTAVYYCAAYAYYHTGDDYWGQGTQVTVSS | high polyreactivity
QVQLQESGGGLVQAGGSQRLSCAASGYIFYFQYMGWYRQAPGKEREFVAAISDGANTNYADSVKGRFTISRDNAKNTEYLQMNSLKPEDTAVYFCAVYADENYYFIYWGQGTQVTVSS | low polyreactivity
QVQLVESGGGLVQAGGSLRLSCAASGITFYANAMGWYRQAPGKERELVATISYRGGSTYYADSVKGRFTISRDNAKNTVYLQMNSLKPEDTAVYYCAARRRRTSNTRVEHNYWGQGTQVTVSS | high polyreactivity
QVQLQESGGGLVQAGGSLRLSCAASGSIFYVYGMGWYRQAPGKERELVAVINAGTNTNYADSVRGRFTISRDNAINSVLLQMNSLKPEDTAVYYCADDGNGYQAHEYWGQGNQVTVSS | high polyreactivity
QVQLVESGGGLVQAGGSLRLSCAASGSTFWYNTMGWYRQAPGKERELVAAISWSGGSTYADSVKGRFTISRDNAKNTVYLQMNSLKPEDTAVYYCNADDYYRYDYWGLGTQVTVSS | low polyreactivity
QVQLVESGGGLVQAGGSLRLSCAASGRTFFFNAMGWYRQAPGKERELVARITWSGGSTYYADSVKGRFTISRDNAKNTVYLQMNSLKPEDTAVYYCNTRRFPYDGIEHDYWGQGTQVTVSS | low polyreactivity
QVQLVESGGGLVQAGGSLRLSRAASGSTFVENAMGWYRQAPGKERELVAAISSSGDSTFYADSVKGRFTISRDNAKNTVYLQMNSLKPEDTAVYYCAADRRINYDGLDMDYWGQGTQVTVSS | low polyreactivity
QVQLVESGGGLVQAGGSLRLSCAASGSTFQYYDMGWYRQAPGKERELVASITGSGDSTYYADSVKGRFTISRDNAKNTVYLQMNSLKPEDTAVYYWGQGTQVTVSS | low polyreactivity
QLQLVESGGGLVQAGGSLRLSCAASGFTFDSYAMGWYRQAPGKERELVAAITWDGGSTYYADSVKGRFTISRDNAKNTVYLQMNSLKPEDTAVYYCAADFGTISIDVYSWMDYWGQGTQVTVSS | low polyreactivity
QDKLVESGGGLVQAGGSLRLSCAASGSTSRDNAMVWYRQAPGKERELVAAITVIDGTTYYADSVKGRFTISRDNAKNTLYLQMNSLKPEDTAVYYCAADTIWFEYYYWGQGTQVTVSS | low polyreactivity
